Experimental data published in the supplement of paper PMC9170038.

system: K4 kissing-loop RNA reporter; assay: apparent KD of K4 kissing-loop reporter; higher = weaker reporter binding; settings: Eterna round: R107; input ligand: FMN 200 uM
Description: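 RNA-MaP round R107: designed RNA switches with theophylline, tryptophan, arginine or FMN aptamers are transcribed on-chip within common flanks. They are titrated with a labelled K4 kissing-loop RNA reporter in RNA-MaP buffer (100 mM Tris pH 7.5, 80 mM KCl, 4 mM MgCl2), without ligand or with the indicated ligand. Median apparent KD per design.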
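Also: bound reporter read as fluorescence of individual clusters on recovered sequencing chips by microscopy, with normalized cluster intensities fitted with a binding model.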

Sequence | apparent KD of K4 kissing-loop reporter
UUUUAUUAAUUCUUCUAGUGAUGUUAGAUACGAGGACCGGUACGGCCGCCACUCGCUUAUUGGUUUAUAUAUUUUAUAUUCUUUA [JR_SSTryptoA_Sub015] | 293 nM
AAGUGAUGUUGUAGUGAUGUUGUGAUGUUGCAGGAUAUAUAGUGAUGUAGAAGGGUAAGUACUUAUUUUUUUUUUGAGUGAUGUU [vcbczrmullin] | 96.6 nM
GGUGCUGUUUGUGCCGCCUUCCUCGUUCCUCGAGGACCGGUACGGCCGCCACUCGAGUGAUGUUUGGGUAGCGAUCCCUGCUAGC [Bdazzled - #14 Exc. Tryptophan A] | 470 nM
GGUAGCAUGGCGGCCGCCACUCGCUAGUGAUGUUAGCGGGAUGAGACAAAGGACAUAACUUUAUCGAGGACCGGGCCAUGCUACC | 88.2 nM
AAGGCCACGAGAAGGAGCGUGCUAUGGAGUGAUGUUCCAGUGUAGACCUAAGGUCUACACGCACAGGUAGGUCGCUCGUGGUCAA [Omei KL Arginine B SS A v1] | 209 nM
AAGGGCUAGGCGGCCGCCACUGGUCGUGUACACAUACGAACCAGUGAUGUUGGUAUUGUAUGCGGCAGGACCGGGCCUAGCCGAA [Exclusion - Tryptophan B (Freestyle 26)] | 415 nM
AGAUCUGUAACAGAUACCAGAGGACGAUGAUCGGAUAGUGAUGUUAUCUGUCAGUCGUCGCUCCCUUGGCAGCUGUUACAGAUCA [Omei KL Theo B SS B v1] | 176 nM
CGGGUACGUCAAGGAUAUAGGCAUGACGUAGUGCAGUGAUGUUGCUCGAGUCUCUUCAACUGAGGACUAGAAGGUGAUCGUAACA [theeternabot_sameState_KL_FMN_B_15] | 491 nM
AAACAUCACUGGGAGUGAUGUUCUCAGUGACGAGGACCGGUACGGCCGCCACUCGCGAGAGAUAUAGUUAAGUAAUGACUGCAUU [Excl Tryptophan A V7] | 324 nM
UCCUAGGCUCGAAAGAGCCUAGGAUUAACUCAGGAUAUCCGGAAACGGAGAAGGGAGUAACUAGUGAUGUUAGGGAUUCCCUAUU | 208 nM
UGGUUUAACUGAAGGAGCGGCAAUUGAUAAGUAAAUAUAGUGAUGUUAUAUAAGAUAGAGAGCCAGGUAGGUCGCAGAGGUAUUU [ExArgB.O] | 145 nM
AACUCUCAGACACUUGAGUGAUGUUCAGACCGAGGACCGGUACGGCCGCCACUCGGGUCUGAGAGAGGUUAUCAAAGAUAGCCAA [Omei KL Tryp A SS A v7] | 280 nM
UGACUGGAUGGAAGGAGCGCUAAACUCCUAGUGAUGUUAGGGAUAUGAGGCAAAGCCUCGAGGCAGGUAGGUCGCCAUCUAGUCU [FiskerMod 19 - Jieux - Same State - Arginine B] | 138 nM
UGAUACCAGACGGCCGCCACUCCCGUAAGUCAAAGACUUACGAAGAGGGUUUUUUAGUGAUGUUGGAGGACCGGGUCUGGUAUCU [FiskerMod 18 - Jieux - Exclusion - Tryptophan B] | 618 nM
UGUCAUUGGUCGGCCGCCACUAAAAUAAAAGAGUGAUGUUCUUAAAAGACGGACAAAGUCUGUCAUAGGACCGGGACCGAUGACU [TrypBS 23 #SwitchBubble #StaticStem] | 547 nM
AUAUUUAUUUAGUCACUUUUAAUAUUAUGUCAGGAUAUCGUAAUUUCGAGAAGGGACUCAUGCUAGUGAUGUUAGCUAAUUCUCA [JR_Nu3_ExcFMNA_Sub023] | 102 nM

same assay, conditions: Eterna round: R107; input ligand: arginine 13.2 mM

Sequence | apparent KD of K4 kissing-loop reporter
AUUUAUCCGUCCAGCUGAGUGAUGUUUAGCCGAGGACCGGUACGGCCGCCACUCGUAAGAACCUGUUACGUUGGCUCCUGUGGUG [theeternabot_exclusion_KL_Trp_A_49] | 196 nM
UUACGAGUGAUGUUCGAAUAAAUCCAUUCAGAGGAUAUAGUAUUAACUAGAAGGCUGAAACCAACUUCGAGUGAUGUUCGAGGAU [Same State FMN A GF 3] | 87.7 nM
AUAUUGGUUGAGAGUGAUGUUCCUUGUGUUCGAGGACCGGUACGGCCGCCACUCGGGUAGAAAAUAAAAGAUAUGUUUGAUUUUU [BDazzled - #12 SS Tryptophan A] | 29.1 nM
AAGGGCUAGGCGGCCGCCACUGGUCGUGUACACAUACGAGCCAGUGAUGUUGGUAUUGUGUGCGGCAGGACCGGGCCUAGCCGAA [Exclusion - Tryptophan B (Freestyle 25)] | 303 nM
UUAGCAGUAUACUGCAAGACCUAUACUGAUACCAGAGCCUAUAGGCUCCCUUGGCAGCGGAUCGAGUGAUGUUCGUAAGGUCAUU [AK4.3 SS Theophylline A] | 667 nM
UAUUCUGUUCGAAAGAACGGAAUUUCGGAAGGAGCGAGAGAAAUCUCAGGUAGGUCGCCGAAAUUAUUAGGUAGUGAUGUUACCU [Arginine A K4 5] | 116 nM
UGUCAUUGGUCGGCCGCCACUUCAUAGAGAGUGAUGUUCUUUAAGACGGAUCGAAAGAUCUGUCGAAGGACCGGGACCGAUGACU [FiskerMod 10 - Jieux - Same State - Tryptophan B] | 527 nM
AAACUUGCAGUGAUGUUGCAAGUAGGUGAUACCAGCAUCGAAAGAUGCCCUUGGCAGCACCAAAACAUCACUUAGGUAUCACCAA [(H1)-(H2)-(T1)-(T2)-(H)'-(T)'_Design3] | 192 nM
GGAUAGGACUGAGGAUAUGGUAGUGAUGUUACCAAACUGGUUAAACAUGUCAGAAAACUGGCAUGACCAGAAGGCGGUCCUAUCG [FmnBX 27 U10+G76] | 65.5 nM
UAACAGGCCCUCACCGUCUUAUUUACAGACCGAGGACCGGUACGGCCGCCACUCGUGAAGUGAUGUUUCAAACAAGCGGUAGGAU | 467 nM
